Here are results for one substance from patent publication US12414933B2, “Polyphosphazene drug carriers” (ONSELEX PHARMACEUTICALS, INC., priority 2019, dated 2025).

The data set deals with Sprague-Dawley rats. The experiment in a line: Intravenous toxicity study: maximum tolerated dose after a single IV injection, 7-day observation. The class given is in vivo, rat. The source says:
The objective of this study was to determine the maximum tolerated dose in test animals following a single parenteral administration, in this case an intravenous (IV) injection, of the drug delivery compositions to Sprague-Dawley rats followed by a 7-day observation period.
In this Example, drug delivery compositions were optimized to carry and deliver the active chemotherapeutic agent Paclitaxel (PTX at about 5%). (See, Table 5 infra). Briefly, under sterile conditions in a laminar flow cabinet sterile water for formation and injection purposes was added to the appropriate amount of drug deliver composition to provide concentrations of 350, 817, 1167, and 1750 mg/mL. The diluted drug deliver compositions were stirred, mixed, or vortexed as necessary to achieve sufficient distribution. The prepared drug deliver compositions were stored protect from light at ambient temperature. The final formulation for each concentration was passed through a 0.2 μm filter prior to administration. The target volume prepared for each dose was 1.55 mL. The actual volume dispensed post-filtering was recorded. Final formulations for administration can be used up to 4 hours after preparation.
Subjects in this Example consisted of age appropriate to weight intact male Sprague-Dawley rats. Various commercial sources of Sprague-Dawley rats are acceptable for supply of Subject animals. Maximum Subject animal weight at initiation of the administrations was 330 gm while minimum weight was 260 gm. Subject animals were housed, feed, provided watered ad libitum, and observed according to standard animal husbandry protocols. Subject animals were excluded for any observable disease or injury that could affect study outcome. […]

Turning to “[NP(MPEG550)3(Lys-OEt)(AA)(PTX)]n [PETTAX-121]”, the “Clinical results: morbidity / euthanasia” value (Group 4: single slow bolus IV 8750 mg/kg PETTAX-121 (PTX 437.5 mg/kg), 1 male rat) is given as “euthanized 20 hours after administration due to observed morbidity”. The “Clinical results: tolerability / adverse reactions” value (Groups 1-3: single slow bolus IV 1750, 4083 and 5833 mg/kg PETTAX-121 (PTX 87.5, 204.2, 291.7 mg/kg), 1 male rat per group, 7-day observation) was “tolerated their respective administration well with no observed adverse reactions or clinically significant observations”. Moreover, the “Clinical results: physical changes” value (Groups 1-3: single slow bolus IV 1750, 4083 and 5833 mg/kg PETTAX-121, 1 male rat per group, 7-day observation) is given as “no significant physical changes”.
